For experiment [1], the target named is T1, recombinant human CD3 epsilon/delta heterodimer (human, UniProt P07766 23-126; P04234 22-105).
T1 construct: Recombinant protein in solution (200-50 nM) in the Octet assay; also called hCD3 E/D; human CD3E/D
The experiment is described as follows: Octet BLI, mAb on FAB2G sensor, hCD3 E/D 200-50 nM; R^2 0.98.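 Note: antibodies purified from hybridoma supernatants, measured by Octet binding to recombinant human CD3 protein.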
Experimental: (§1) Samples were evaluated by flow cytometry analysis against Jurkat and human Pan-T cells (FIG. 1B) as well as by Octet against recombinant human CD3 proteins to evaluate apparent affinities and binding off-rates (Table 6, infra).

Experiment [2] has as its target T2, recombinant human CD3 epsilon/gamma heterodimer (human, UniProt P07766 23-126; P09693 23-116).
T2 construct: Recombinant protein in solution (200-50 nM) in the Octet assay; also called hCD3 E/G
In words: Octet BLI, mAb on FAB2G sensor, hCD3 E/G 200-50 nM; R^2 0.79.
Experimental: as §1

The target of experiment [3] is T1, recombinant human CD3 epsilon/delta …. The experiment is described as follows: Octet BLI, mAb on FAB2G sensor, hCD3 E/D 200-50 nM; R^2 0.94.
Experimental: as §1
For experiment [4], the target named is T2, recombinant human CD3 epsilon/gamma …. The experiment is described as follows: Octet BLI, mAb on FAB2G sensor, hCD3 E/G 200-50 nM; R^2 0.92.
Experimental: as §1
Experiment [5] concerns the target T1, recombinant human CD3 epsilon/delta …. The experiment is described as follows: Octet BLI, mAb on FAB2G sensor, hCD3 E/D 200-50 nM; R^2 0.96.
Experimental: as §1
Experiment [6] concerns the target T2, recombinant human CD3 epsilon/gamma …. The experiment is described as follows: Octet BLI, mAb on FAB2G sensor, hCD3 E/G 200-50 nM; R^2 0.85.
Experimental: as §1
Experiment [7] has the same target. In words: Octet BLI, mAb on FAB2G sensor, hCD3 E/G 200-50 nM; R^2 0.59.
In experiment [8] the target is T1, recombinant human CD3 epsilon/delta …. In words: Octet BLI, mAb on FAB2G sensor, hCD3 E/D 200-50 nM; R^2 0.92.
Experiment [9] addresses T2, recombinant human CD3 epsilon/gamma …. The experiment is described as follows: Octet BLI, mAb on FAB2G sensor, hCD3 E/G 200-50 nM; R^2 0.64.
Experimental: as §1
Experiment [10] deals with T1, recombinant human CD3 epsilon/delta …. The experiment is described as follows: Octet BLI, mAb on FAB2G sensor, hCD3 E/D 200-50 nM; R^2 0.60.
Experimental: as §1
For experiment [11], the target named is T2, recombinant human CD3 epsilon/gamma …. The experiment is described as follows: Octet BLI, mAb on FAB2G sensor, hCD3 E/G 200-50 nM; R^2 0.49.
Experimental: as §1
The target in experiment [12] is T1, recombinant human CD3 epsilon/delta …. In words: Octet BLI, mAb on FAB2G sensor, hCD3 E/D 200-50 nM; R^2 0.97.
Experimental: as §1
For experiment [13], the target named is T2, recombinant human CD3 epsilon/gamma …. In words: Octet BLI, mAb on FAB2G sensor, hCD3 E/G 200-50 nM; R^2 0.91.
Experimental: as §1
Experiment [14] concerns the target T1, recombinant human CD3 epsilon/delta …. In words: Octet BLI, mAb on FAB2G sensor, hCD3 E/D 200-50 nM; R^2 0.99.
The target in experiment [15] is T2, recombinant human CD3 epsilon/gamma …. The experiment is described as follows: Octet BLI, mAb on FAB2G sensor, hCD3 E/G 200-50 nM; R^2 0.63.
Experimental: as §1
Experiment [16] concerns the target T1, recombinant human CD3 epsilon/delta …. The experiment is described as follows: Octet BLI, mAb on FAB2G sensor, hCD3 E/D 200-50 nM; R^2 1.00.
Experiment [17] deals with T2, recombinant human CD3 epsilon/gamma …. In words: Octet BLI, mAb on FAB2G sensor, hCD3 E/G 200-50 nM; R^2 0.76.
Experimental: as §1
The target is the same in experiment [18]. The experiment is described as follows: Octet BLI, mAb on FAB2G sensor, hCD3 E/G 200-50 nM; R^2 0.96.
Experiment [19] deals with T1, recombinant human CD3 epsilon/delta …. The experiment is described as follows: Octet BLI, mAb on FAB2G sensor, hCD3 E/D 200-50 nM; R^2 0.95.
Experimental: as §1

Changes are numbered by the printed parent chain.

T2 sequence (P07766 23-126, chain 1 of 2): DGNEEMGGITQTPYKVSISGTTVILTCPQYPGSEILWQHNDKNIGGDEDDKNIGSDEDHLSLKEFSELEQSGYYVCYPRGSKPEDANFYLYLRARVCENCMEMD
T2 sequence (P09693 23-116, chain 2 of 2): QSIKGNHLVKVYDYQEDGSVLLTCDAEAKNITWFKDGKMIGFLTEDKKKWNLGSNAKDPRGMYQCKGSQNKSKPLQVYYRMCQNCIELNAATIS
T1 sequence (P07766 23-126, stated change not applied, chain 1 of 2): as the sequence (P07766 23-126, chain 1 of 2) above
T1 sequence (P04234 22-105, stated change not applied, chain 2 of 2): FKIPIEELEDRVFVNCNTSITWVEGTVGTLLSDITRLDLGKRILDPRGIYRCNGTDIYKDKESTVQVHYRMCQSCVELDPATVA

B1: ABL-CD3-21 (antibody, V domains shown)
VH: EVQLVESGGGLVKPGGSLRLSCAASGFTFSSYSMNWVRQAPGKGLEWVSSISRSSSYIYYADSVKGRFTLSRDNAKNSLYLQMNSLRGEDTAIYYCGRDGKGAIFLDYWGQGTLVTVSS
VL: SYELTQPPSVSVSPGQTARITCSGDALPKKYAYWYQQKSGQAPVLVIYEDSKRPSGIPERFSGSSSGTMATLTISGAQVEDEADYYCYSTHSSGNHRVFGGGTKLTVL
notes: Chimeric hybridoma mAb: human V, CH1, upper hinge; mouse middle hinge, CH2, CH3
B1: in experiment [1], the Kd is 95.3 nM, the Response stood at 0.27, the koff worked out at 0.036 s⁻¹ and the kon stood at 378000 M⁻¹ s⁻¹. Moreover, in experiment [2], the Kd was 130 nM, the koff turned out to be 0.0994 s⁻¹ and the kon turned out to be 766000 M⁻¹ s⁻¹.

B2: ABL-CD3-31 (antibody, V domains shown)
VH: EVQLVQSGAEVKKPGESLKISCKGSGYSFTNYWIGWVRQMPGKGLEWMGIIYPADSDTTYSPSFQGQVTISADKSITTAYLQWSSLKASDTAMYYCARHGGSYILDAFDIWGQGTMVTVSS
VL: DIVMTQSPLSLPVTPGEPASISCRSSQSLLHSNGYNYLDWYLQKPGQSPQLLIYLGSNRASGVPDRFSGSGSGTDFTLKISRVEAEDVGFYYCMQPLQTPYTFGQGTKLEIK
notes: as for B1
As to B2, in [3], the Kd stood at 6.66 nM, the koff was determined as 0.00149 s⁻¹ and the kon is 223000 M⁻¹ s⁻¹. In addition, in [4], the Kd stood at 5.64 nM, the koff is 0.00173 s⁻¹ and the kon turned out to be 306000 M⁻¹ s⁻¹.

B3: ABL-CD3-22 (antibody, V domains shown)
VH: EVQLVESGGGLVQPGGSLRLSCAASGFTFSSYSMNWVRQAPGKGLEWVSYISSSSSTIYYADSVKGRFTISRDNAKNSLYLQMNSLRDEDTAVYYCARDGPVDYGMDVWGQGTTVTVSS
VL: SYELTQPPSVSVSPGQTARITCSGDALPKQYTYWCQQKPGQAPVLVIYKDSERPSGIPERFSGSSSGTTVTLTISGVQAEDEADYYCQSADSSGTYRVFGGGTKLTVL
notes: as for B1
As for B3, in experiment [5], the Kd came to 49.2 nM, the Response was 0.08, the koff turned out to be 0.00513 s⁻¹ and the kon was 104000 M⁻¹ s⁻¹. Also, in experiment [6], the Kd was found to be 14.4 nM, the koff worked out at 0.00639 s⁻¹ and the kon amounted to 444000 M⁻¹ s⁻¹.

B4: ABL-CD3-37 (antibody, V domains shown)
VH: EVQLVESGGGLVQPGGSLRLSCAASGFSFSSYSMNWVRQAPGKGLEWVSHIRSSTYSIYYADSVMGRFTISRDNAKNSLYLQMNSLRDEDTAVYFCARAKTGGDAFDIWGQGTMVTVSS
VL: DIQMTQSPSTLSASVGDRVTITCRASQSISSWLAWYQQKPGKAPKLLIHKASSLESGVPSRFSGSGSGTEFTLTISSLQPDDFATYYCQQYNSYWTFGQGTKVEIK
notes: as for B1
B4: in experiment [7], the Kd was determined as 1.43 nM, the koff came out at 0.00269 s⁻¹ and the kon turned out to be 1.89e+06 M⁻¹ s⁻¹. In experiment [8], the Kd came out at 17.8 nM, the koff was 0.00404 s⁻¹ and the kon is 227000 M⁻¹ s⁻¹.

B5: ABL-CD3-27 (antibody, V domains shown)
VH: QVQLVQSGAEVKKPGASLKVSCKASGYTFTSYYMHWVRQAPGQGLEWMGIINPSNGNTISAQKFQGRVTMTRDTSTSTVYMEMSSLRSEDTAVYYCVRCWGYYVMDVWGQGTTVTVSS
VL: QTVVTQEPSFSVSPGGTVTLTCGLNSGSVSTSYYPSWYQQTPGQTPRTLIYSTNTRSSGVPDRFSGSILGNKAALTITGAQADDESDYYCVLYMGSGIWVFGGGTKLTVL
notes: as for B1
Regarding B5, in experiment [9], the Kd was found to be 3.65 nM, the koff worked out at 0.00156 s⁻¹ and the kon came to 428000 M⁻¹ s⁻¹. Further, in [5], the Kd stood at 2.31 nM, the Response was determined as 0.39, the koff was 0.000528 s⁻¹ and the kon was found to be 228000 M⁻¹ s⁻¹.

B6: ABL-CD3-18 (antibody, V domains shown)
VH: EVQLVESGEGLVQPGGSLRLSCAASGFTFSSYAMHWVRQAPGKGLEYVSAISSNGGRTYYADSVKGRFTISRDNSKNTLYLQMGSLRAEDMAVYYCARGGSLDYWGQGTLVTVSS
VL: DIVMTQTPLSSPVTPGQPASISCRSSQSLVHSDGNTYLNWLQQRPGQPPRLLIYKISDRFSGVPDRFSGSGAGTDFTLKIGRVEAEDVGVYYCMQSTQFPITFGQGTRLEIK
notes: as for B1
B6: in [10], the Kd is less than 0.001 nM, the koff is less than 1e-07 s⁻¹ and the kon worked out at 29100 M⁻¹ s⁻¹. In [11], the Kd was less than 0.001 nM, the off-rate (koff) is less than 1e-07 s⁻¹ and the kon amounted to 27000 M⁻¹ s⁻¹.

B7: ABL-CD3-17 (antibody, V domains shown)
VH: EVQLVESGGGLVQPGGSLRLSCAASGFTFSRYSINWVRQAPGKGLEWVSYISSSSSTIYYADSVKGRFTISRDNAKNSLYLQMNSLRDEDTAVYYCARERWELLYFDYWGQGTLVTVSS
VL: NFMLTQPHSVSESPGKTVTISCTRSSGSIASKYVQWYQQRPGSSPTTVIYEDNQRPSGVPDRFSGSIDSSSNSASLTISGLKTEDEADYYCQSYDSNNRVFGGGTKLTVL
notes: as for B1
For B7, in experiment [12], the Kd turned out to be 103 nM, the Response amounted to 0.22, the koff amounted to 0.0318 s⁻¹ and the kon worked out at 309000 M⁻¹ s⁻¹. In experiment [13], the Kd worked out at 210 nM, the koff was 0.132 s⁻¹ and the kon is 627000 M⁻¹ s⁻¹.

B8: ABL-CD3-16 (antibody, V domains shown)
VH: EVQLVESGGGLVQPGGSLRLSCAASGFTFSRYWMTWVRQAPGKGLEWVANIKEDGSEKYCVDSVKGRFTISRDNAKNSLYLQLNSLRAEDTAVYYCARERRTGYFDYWGQGTLVTVSS
VL: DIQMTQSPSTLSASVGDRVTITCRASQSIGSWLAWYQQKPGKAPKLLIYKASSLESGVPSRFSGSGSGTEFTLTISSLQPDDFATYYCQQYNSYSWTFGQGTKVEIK
notes: as for B1
Regarding B8, in [14], the Kd was determined as 29.5 nM, the Response is 0.19, the koff was found to be 0.00153 s⁻¹ and the kon amounted to 51900 M⁻¹ s⁻¹. For the same molecule, in experiment [15], the Kd is less than 0.001 nM, the koff was less than 1e-07 s⁻¹ and the kon is 36200 M⁻¹ s⁻¹.

B9: ABL-CD3-36 (antibody, V domains shown)
VH: B8 VH with P14R, R31N, T35S, N77H, L83M
VL: DIQMTQSPSTLSASVGDRVTITCRASQSISSWLAWFQQKTGKAPKLLIYKASSLESGVPSRFSGSGSGTEFTLTISSLQPDDFATYYCQQYISYSWTFGQGTKVEIK
notes: as for B1
As to B9, in [16], the Kd came to 25 nM, the Response was determined as 0.49, the koff amounted to 0.00101 s⁻¹ and the kon was determined as 40400 M⁻¹ s⁻¹. In experiment [17], the Kd is 4.18 nM, the koff came to 0.00729 s⁻¹ and the kon was 1.74e+06 M⁻¹ s⁻¹.

B10: ABL-CD3-32 (antibody, V domains shown)
VH: EVQLVESGGGLVKPGGSLRLSCEASGFTFSSYNMNWVRQAPGKGLEWVSSISSSSSYIYYTDSVKGRFTISRDNAKNSLYLQMNSLRAEDTAVYYCARAERGSYAFDFWGQGTMVTVSS
VL: not shown
notes: as for B1
For B10, in experiment [18], the Kd is 31.6 nM, the koff stood at 0.00962 s⁻¹ and the kon worked out at 305000 M⁻¹ s⁻¹. Moreover, in experiment [19], the Kd was determined as 38.9 nM, the koff came to 0.0152 s⁻¹ and the kon is 390000 M⁻¹ s⁻¹.

The values above are taken from US20260167721A1 (ABLEXIS, published 2026).
